From patent US20110104163A1 (US Dept. of Health and Human Services, published 2011)

Columns and labels:
[1] = biological target: T1, single-chain fusion protein gp120Bal-CD4 (HIV-1 isolate Bal, UniProt P01730 26-208); test: ELISA, soluble VH on coated gp120-CD4
T1 construct: Gift from T. Fouts; Coated on ELISA plates; also called gp120-CD4; Bal gp120-CD4; not shown: junction or linker between gp120 and CD4 not described (gift, Fouts et al. 2000)

[2] = biological target: T1, single-chain fusion protein gp120Bal-CD4; test: ELISA, serially diluted m36 on coated antigen, anti-FLAG detection
soluble CD4 = biological target: T2, soluble CD4 (UniProt P01730 26-396, limits assumed); test: ELISA, plate coated with 1 µg/ml antigen, m36 detected with HRP anti-FLAG
T2 construct: also called sCD4

bovine serum albumin = biological target: T3, bovine serum albumin (bovine, UniProt P02769 25-607); test: as above
T3 construct: also called BSA
T3 sequence (P02769 25-607 limits assumed): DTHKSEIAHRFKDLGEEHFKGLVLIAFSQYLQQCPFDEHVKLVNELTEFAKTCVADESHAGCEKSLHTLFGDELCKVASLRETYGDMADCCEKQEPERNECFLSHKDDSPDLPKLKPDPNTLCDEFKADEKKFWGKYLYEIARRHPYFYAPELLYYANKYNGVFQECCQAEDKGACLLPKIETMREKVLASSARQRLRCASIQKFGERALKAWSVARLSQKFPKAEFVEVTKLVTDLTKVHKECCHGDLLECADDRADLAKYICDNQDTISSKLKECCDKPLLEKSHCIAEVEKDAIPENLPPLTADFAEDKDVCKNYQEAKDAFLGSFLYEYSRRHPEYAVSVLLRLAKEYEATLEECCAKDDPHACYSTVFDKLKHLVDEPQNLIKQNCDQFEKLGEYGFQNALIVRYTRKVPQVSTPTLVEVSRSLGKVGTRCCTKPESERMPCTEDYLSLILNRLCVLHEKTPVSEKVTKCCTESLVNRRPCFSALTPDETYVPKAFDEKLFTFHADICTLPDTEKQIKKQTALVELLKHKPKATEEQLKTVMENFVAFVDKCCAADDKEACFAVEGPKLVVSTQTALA

B1: m36 (VHH)
VHH: QVQLVQSGGGLVQPGGSLRLSCAASAFDFSDYEMSWVRQAPGKGLEWIGEINDSGNTIYNPSLKSRVTISRDNSKNTLYLQMNTLRAEDTAIYYCAIYGGNSGGEYWGQGTLVTVSS
notes: Human VH domain antibody, monomeric, made in E. coli with His and FLAG tags; also called b5; dAb m36
[1]
  EC50: 0.04 µg/mL
[2]
  EC50: ~2.5 nM
Soluble CD4
  binding result: no binding (tested: 10 µg/ml)
Bovine serum albumin
  binding result: no binding (tested: 10 µg/ml)
